Test [1] addresses recombinant TGF-β1 (rat TGFβ1 sequence expressed in HEK cells, heat-activated) (rat) (UniProt P17246). The test is described as follows: cell-based or functional assay.
For test [2], the target named is TGF-β present in IFN-β-treated mouse 2D2-FIG splenocyte cultures (endogenous) (mouse). The experiment in a line: cell-based or functional assay.

Chain of UniProt P17246 (P17246 279-390 limits assumed): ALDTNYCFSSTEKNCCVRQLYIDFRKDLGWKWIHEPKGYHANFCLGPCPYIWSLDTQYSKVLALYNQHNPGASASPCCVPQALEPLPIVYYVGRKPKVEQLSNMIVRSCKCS

B1: 1D11.16.8 anti-mouse-TGF-β1/2/3 mouse IgG1 mAb (antibody, from another filing, V domains shown)
VH: QVQLQQSGPELVRPGASVKLSCKASGYIFITYWMNWVKQRPGQGLEWIGQIFPASGSTNYNEMFEGKATLTVDTSSSTAYMQLSSLTSEDSAVYYCARGDGNYALDAMDYWGQGTSVTVSS
VL: DIVLTQSPASLAVSLGQRATISCRASESVDSYGNSFMHWYQQKSGQPPKLLIYLASNLESGVPARFSGSGSRTDFTLTIDPVEADDAATYYCQQNNEDPLTFGAGTKLEIK
Consider B1, for which the inhibition of TGF-β-induced FOXP3+ Treg induction (GFP) in MOG35-55-stimulated 2D2-FIG splenocytes, 7 days in test [1] came to 1 µg/mL. In test [2], this molecule registered an inhibition of IFN-β-induced FOXP3+ Treg induction (GFP) in MOG35-55-stimulated 2D2-FIG splenocytes, 7 days of 1 µg/mL.
